Reference: publication PMC9951844 (Nature Communications, 2023)

How the values were obtained:
S-GSAS/6P/Wildtype = S-GSAS/6P/Wildtype (SARS-CoV-2 hCoV-19/Wuhan/WIV04/2019, UniProt P0DTC2, proline substitution at residue 817 | proline substitution at residue 892 | …); assay: cryo-EM structure; conditions: both partners purified
S-R/6P/Omicron BA.1 = S-R/6P/Omicron BA.1 (SARS-CoV-2 Omicron BA.1 (B.1.1.529), S371L | S373P | S375F | K417N | A484 | proline substitution at residue 817 | …); assay: cryo-EM structure; conditions: both partners purified

| Binder | stoichiometry N (S-GSAS/6P/Wildtype) | stoichiometry N (S-R/6P/Omicron BA.1) |
| --- | --- | --- |
| R1-32 Fab (Fab, V domains shown) VH: EVQLVESGAEVKKPGSSVKVSCKASGGTFSSYAISWVRQAPGQGLEWMGGIIPILGIANYAQKFQGRVTITADKSTSTAYMELSSLRSEDTAVYYCARENGYSGYGAAANFDLWGRGTLVTVSS VL: QSVLTQPPSVSGAPGQRVTISCTGSSSNIGAGYDVHWYQQLPGTAPKLLIYGNSNRPSGVPDRFSGSKSGTSASLAITGLQAEDEADYYCQSYDSSLSGSVFGGGTKLTVL | 3 Fabs per spike trimer (3:3:3) |  |
| YB9-258 Fab (Fab, V domains shown) VH: EVQLVESGGGLIQPGGSLRLSCAASGLTVSSNYMHWVRQAPGKGLEWVSVLYAGGSAFYADSVKGRFTISRNNSKNTLYLQMNSLRAEDTAIYYCARGLGDYLDSWGQGTLVTVSS VL: DIQMTQSPSSVSASVGDRVTITCRASQGIGSWLAWYQQKPGKAPQLLIYAASTLQSGVPPRFSGSGSGTDFTLTITSLQPEDFASYYCQQANSVLALTFGGGTKVEIK | 3 Fabs per spike trimer (3:3:3) |  |
| YB13-292 Fab (Fab, V domains shown) VH: EVQLVESGGGLVKPGGSLRLSCAASGFSFITYNMNWVRQAPGKGLEWVSSISSNILSSTSYIYYADSVKGRFTISRDDAANSLFLQMNSLRVEDTAQYYCARTRSRSVRNCTSATCPVDAFDLWGQGTMVIVSS VL: DIVLTQSPLSLPVTPGEPASISCRSSQSLLRSNGYNYLDWYLQKPGQSPHLLIYLGSNRASGVPDRFSGSGSGTDFTLKISRVEAEDVGVYYCMQALQTPYTFGQGTNLEIK |  | 3 Fabs per spike trimer (3:3 protomer:Fab) |
